In PMC4259882:

B1: fadL probe 1 (dsDNA)
DNA 1: GCAACATTCCAGCTGGTCCGACCTATACTCTCGCC
DNA 2: GGCGAGAGTATAGGTCGGACCAGCTGGAATGTTGC
B2: fadD probe 2 (dsDNA)
DNA 1: GTAATTATCAAGCTGGTATGATGAGTTAATATTATG
DNA 2: CATAATATTAACTCATCATACCAGCTTGATAATTAC
B3: fadBA probe (dsDNA)
DNA 1: ACTTCGACTCATCTGGTACGACCAGATCACCTTGCGG
DNA 2: CCGCAAGGTGATCTGGTCGTACCAGATGAGTCGAAGT
B4: fabA probe (dsDNA)
DNA 1: TTTATTCCGAACTGATCGGACTTGTTCAGCGTACACGTGTTAGCTATCCTGCGTGC
DNA 2: GCACGCAGGATAGCTAACACGTGTACGCTGAACAAGTCCGATCAGTTCGGAATAAA
B5: fabB probe (dsDNA)
DNA 1: TCTATTAAATGGCTGATCGGACTTGTTCGGCGTACAAGTGTACGCTATTGTGCATTC
DNA 2: GAATGCACAATAGCGTACACTTGTACGCCGAACAAGTCCGATCAGCCATTTAATAGA
B6: fadL probe 2 (dsDNA)
DNA 1: CTCTCGCCACTGGTCTGATTTCTAAGATGTACCTC
DNA 2: GAGGTACATCTTAGAAATCAGACCAGTGGCGAGAG
B7: fadD probe 1 (dsDNA)
DNA 1: GAAACAGCGGCTGGTCCGCTGTTTCTGCATTCT
DNA 2: AGAATGCAGAAACAGCGGACCAGCCGCTGTTTC

Assays:
[1] = molecular target: T1, FadR K113 (W60G) (Escherichia coli strain K113, UniProt P0A8V6 1-239, W60G); assay: EMSA; up to 2 pmol protein; Roche DIG gel shift binding buffer (composition not stated), 15 min, room temperature; 0.1 pmol (Fig. 3) or 0.2 pmol (Fig. 6) probe; 7-7.5% native PAGE
[2] = molecular target: T2, FadR WT (Escherichia coli K12, UniProt P0A8V6 1-239); assay: EMSA; Roche DIG gel shift binding buffer (composition not stated), 15 min, room temperature; 0.1 pmol (Fig. 3) or 0.2 pmol (Fig. 6) probe; 7-7.5% native PAGE
[3] = molecular target: T2, FadR WT; assay: EMSA; dose-dependent, 0.05-10 pmol protein; Roche DIG gel shift binding buffer (composition not stated), 15 min, room temperature; 0.1 pmol (Fig. 3) or 0.2 pmol (Fig. 6) probe; 7-7.5% native PAGE
[4] = molecular target: FadR F74G/W75G (Escherichia coli K12, UniProt P0A8V6 1-239, F74G;W75G); assay: EMSA; up to 10 pmol protein; Roche DIG gel shift binding buffer (composition not stated), 15 min, room temperature; 0.1 pmol (Fig. 3) or 0.2 pmol (Fig. 6) probe; 7-7.5% native PAGE
[5] = molecular target: FadR W75G (Escherichia coli K12, UniProt P0A8V6 1-239, W75G); assay: as above
[6] = molecular target: T1, FadR K113 (W60G); assay: as above
[7] = molecular target: FadR F74G (Escherichia coli K12, UniProt P0A8V6 1-239, F74G); assay: as above

| Binder | binding result [1] | binding result [2] | also measured |
| --- | --- | --- | --- |
| B1 | no binding | binds | – |
| B2 | – | – | binding result [3]: binds; binding result [4]: no binding; binding result [5]: no binding; binding result [6]: no binding; binding result [7]: no binding |
| B3 | no binding | binds | – |
| B4 | no binding | binds | – |
| B5 | no binding | binds | – |
| B6 | no binding | binds | – |
| B7 | no binding | binds | – |
